According to patent publication US20030064496:

B1: purified mouse MEKK2 (protein)
chain: MDDQQALNSIMQDLAVLHKASRPALSLQETRKAKPSSPKKQNDVRVKFEHRGEKRILQVTRPVKLEDLRSKSKIAFGQSMDLHYTNNELVIPLTTQDDLDKAVELLDRSIHMKSLKILLVVNGSTQATNLEPSPSPEDLNNTPLGAERKKRLSVVGPPNRDRSSPPPGYIPDILHQIARNGSFTSINSEGEFIPESMDQMLDPLSLSSPENSGSGSCPSLDSPLDGESYPKSRMPRAQSYPDNHQEFTDYDNPIFEKFGKGGTYPRRYHVSYHHQEYNDGRKTFPRARRTQGTSFRSPVSFSPTDHSLSTSSGSSVFTPEYDDSRIRRRGSDIDNPTLTVTDISPPSRSPRAPTNWRLGKLLGQGAFGRVYLCYDVDTGRELAVKQVQFNPESPETSKEVNALECEIQLLKNLLHERIVQYYGCLRDPQEKTLSIFMELSPGGSIKDQLKAYGALTENVTRKYTRQILEGVHYLHSNMIVHRDIKGANILRDSTGNIKLGDFGASKRLQTICLSGTGMKSVTGTPYWMSPEVISGEGYGRKADIWSVACTVVEMLTEKPPWAEFEAMAAIFKIATQPTNPKLPPHVSDYTRDFLKRIFVEAKLRPSAEELLRHMFVHYH
B2: His-tagged hMEKK2 (polyhistidine-hMEKK2 fusion) (protein)
chain: HHHHHHMDDQQALNSIMQDLAVLHKASRPALSLQETRKAKSSSPKKQNDVRVKFEHRGEKRILQFPRPVKLEDLRSKAKIAFGQSMDLHYTNNELVIPLTTQDDLDKAVELLDRSIHMKSLKILLVINGSTQATNLEPLPSLEDLDNTVFGAERKKRLSIIGPTSRDRSSPPPGYIPDELHQVARNGSFTSINSEGEFIPESMDQMLDPLSLSSPENSGSGSCPSLDSPLDGESYPKSRMPRAQSYPDNHQEFSDYDNPIFEKFGKGGTYPRRYHVSYHHQEYNDGRKTFPRARRTQGTSLRSPVSFSPTDHSLSTSSGSSIFTPEYDDSRIRRRGSDIDNPTLTVMDISPPSRSPRAPTNWRLGKLLGQGAFGRVYLCYDVDTGRELAVKQVQFDPDSPETSKEVNALECEIQLLKNLLHERIVQYYGCLRDPQEKTLSIFMEYMPGGSIKDQLKAYGALTENVTRKYTRQILEGVHYLHSNMIVHRDIKGANILRDSTGNVKLGDFGASKRLQTICLSGTGMKSVTGTPYWMSPEVISGEGYGRKADIWSVACTVVEMLTEKPPWAEFEAMAAIFKIATQPTNPKLPPHVSDYTRDFLKRIFVEAKLRPSADELLRHMFVHYH

Target: GST-MKK4 fusion protein (Upstate Biotechnologies, Inc) [GST: P08515]

Row | Protein | phosphorylation of GST-MKK4 in a kinase reaction with [gamma-32P]-ATP (SDS-PAGE, phosphorimager)
1 | B1 | The ability of extracts containing his-tagged hMEKK2 to phosphorylate GST-MKK4 was comparable to the activity of purified mouse MEKK2
2 | B2 | comparable to the activity of purified mouse MEKK2, and significantly above the background levels seen with control extracts
